Measurements published in FireProtDB (doi:10.1093/protein/gzt061).

Settings: Rhodococcus erythropolis; pH 7.1; Thermal; Fluorescence; Potassium phosphate 50mM; transition: 2; reversible: no; whole UniProt chain shown

B1: Limonene-1,2-epoxide hydrolase wild type, Q9ZAG3 (protein)
chain: MTSKIEQPRWASKDSAAGAASTPDEKIVLEFMDALTSNDAAKLIEYFAEDTMYQNMPLPPAYGRDAVEQTLAGLFTVMSIDAVETFHIGSSNGLVYTERVDVLRALPTGKSYNLSILGVFQLTEGKITGWRDYFDLREFEEAVDLPLRG
Tm: 48.8 °C
